In experiment [1] the target is T1, human SIRPA_V1 protein (human, UniProt P78324 31-504).
T1 construct: Expressed on 293α cells from pcDNA3.2 V5-DEST or pFLAG V5-DEST (FLAG-tagged) vectors; also called human SIRPA Variant 1; hSIRPA V1
The experiment can be described thus: blocking cell-based ELISA: peroxidase-labeled CD47-Fc (10,000 ng/mL) on 293α cells expressing SIRPA_V1; y axis = CD47-Fc signal in % of no antibody [i]. On the procedure:
(§1) After the culture supernatant of the human SIRPA and monkey SIRPA expression vector-introduced 293α cells prepared in Examples 5)-1 and 5)-2, respectively, was removed, 50 μL per well of cD13 (IgG2 and IgG4pf), cF44 (four different constant regions IgG1, IgG2, IgG4p, and IgG4pf), and cF63 (IgG2 and IgG4pf) diluted with 5% FBS-containing PBS to final concentrations of 0 to 10,000 ng/mL were added to each of pcDNA3.2 V5-DEST-SIRPA_V1, pcDNA3.2 V5-DEST-monkey SIRPA, and pcDNA3.2 V5-DEST-introduced 293α cells, immediately followed by addition of 50 μL per well of peroxidase-labeled CD47-Fc prepared in 5% FBS-containing PBS at a final concentration of 10,000 ng/ml, and the mixture was allowed to stand at 4° C. for one hour. Thereafter, the SIRPA-CD47 binding inhibitory activity was evaluated in the same manner as in 1)-6-3.
(In general: An ELISA detects its analyte on a solid surface through an enzyme-linked reagent.)
Target sequence in this assay (P78324 31-504 limits assumed): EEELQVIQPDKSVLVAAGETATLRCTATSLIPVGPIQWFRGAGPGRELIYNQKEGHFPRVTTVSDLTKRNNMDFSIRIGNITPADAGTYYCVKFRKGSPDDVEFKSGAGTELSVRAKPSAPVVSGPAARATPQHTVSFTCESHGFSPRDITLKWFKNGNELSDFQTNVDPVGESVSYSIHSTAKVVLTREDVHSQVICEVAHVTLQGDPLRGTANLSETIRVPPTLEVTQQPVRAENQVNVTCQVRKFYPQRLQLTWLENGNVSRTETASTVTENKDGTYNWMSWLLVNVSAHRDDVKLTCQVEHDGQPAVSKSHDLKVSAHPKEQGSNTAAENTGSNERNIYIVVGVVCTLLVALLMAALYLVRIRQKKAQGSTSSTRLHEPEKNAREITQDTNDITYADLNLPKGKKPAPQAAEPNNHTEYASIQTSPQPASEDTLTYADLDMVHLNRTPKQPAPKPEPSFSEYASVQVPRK

Experiment [2] addresses T2, SIRPA_V1_IgV (human, UniProt P78324 31-149).
T2 construct: Secreted recombinant protein from FreeStyle 293F cells
The experiment can be described thus: SPR Biacore T200, antibody captured, SIRPA_V1_IgV as analyte, 1:1 model. The protocol: The dissociation constants of the cD13, cF44, and cF63 prepared in Example 4 against the human SIRPA_V1_IgV prepared in Example 1 were determined by a capture method comprising capturing a human chimeric antibody as a ligand and measuring an antigen as an analyte, using Biacore T200 (GE Healthcare Bioscience Corp.). HBS-EP+ (GE Healthcare Bioscience Corp.) was used as a running buffer, and CM5 (GE Healthcare Bioscience Corp.) was used as a sensor chip. In an amount of 1 μg/mL human chimeric antibody was added onto a chip at a rate of 10 μL/min for 60 seconds, a serially diluted solution of human SIRPA protein as an antigen (0.5 to 8 μg/mL) was added at a flow rate of 30 μL/min for 120 seconds, and the dissociation phase continued to be monitored for 600 seconds. As a regenerant, 3 M magnesium chloride (GE Healthcare Bioscience Corp.) was added at a flow rate of 20 μL/min for 30 seconds. For data analysis, the binding rate constant (ka), dissociation rate constant (kd), and dissociation constant (KD; KD=kd/ka) were calculated using a 1:1 binding model.

The target in experiment [3] is T3, monkey SIRPA protein (cynomolgus monkey, UniProt P78324 31-504 (human entry)).
T3 construct: Expressed on 293α cells from pcDNA3.2 V5-DEST or pFLAG V5-DEST vectors; also called cynomolgus monkey SIRPA; cSIRPA
T3 chain: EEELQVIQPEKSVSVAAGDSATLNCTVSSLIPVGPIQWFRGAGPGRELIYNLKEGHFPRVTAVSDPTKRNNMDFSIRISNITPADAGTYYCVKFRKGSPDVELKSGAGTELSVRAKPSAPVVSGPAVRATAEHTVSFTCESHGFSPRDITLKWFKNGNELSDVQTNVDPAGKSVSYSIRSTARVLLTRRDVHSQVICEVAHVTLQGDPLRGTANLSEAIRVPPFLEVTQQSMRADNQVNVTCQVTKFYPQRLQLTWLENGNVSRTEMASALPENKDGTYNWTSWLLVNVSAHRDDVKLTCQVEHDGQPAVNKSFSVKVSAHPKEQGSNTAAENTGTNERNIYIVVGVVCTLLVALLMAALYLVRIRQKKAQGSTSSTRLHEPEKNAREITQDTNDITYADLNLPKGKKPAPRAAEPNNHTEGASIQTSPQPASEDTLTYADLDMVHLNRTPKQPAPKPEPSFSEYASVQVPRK
Kind of experiment: cell-based ELISA on 293α cells expressing FLAG-tagged monkey SIRPA; Abs 490 normalized to FLAG tag.

The target of experiment [4] is T1, human SIRPA_V1 protein. The experiment can be described thus: blocking cell-based ELISA: peroxidase-labeled CD47-Fc (10,000 ng/mL) on 293α cells expressing SIRPA_V1; y axis = CD47-Fc signal in % of no antibody [i]. The protocol: as §1
This is another data set of the same source.

Experiment [5] addresses T4, human SIRPA_V2 protein (human, UniProt P78324 31-504).
T4 construct: Expressed on 293α cells from pcDNA3.2 V5-DEST or pFLAG V5-DEST (FLAG-tagged) vectors; also called human SIRPA Variant 2; ECD variant (full-length, amino acids 1 to 504)
Kind of experiment: blocking cell-based ELISA: peroxidase-labeled CD47-Fc (10,000 ng/mL) on 293α cells expressing SIRPA_V2; y axis = CD47-Fc signal in % of no antibody [ii].
Target sequence in this assay (P78324 other isoform, or with tags, fused parts or gaps limits assumed): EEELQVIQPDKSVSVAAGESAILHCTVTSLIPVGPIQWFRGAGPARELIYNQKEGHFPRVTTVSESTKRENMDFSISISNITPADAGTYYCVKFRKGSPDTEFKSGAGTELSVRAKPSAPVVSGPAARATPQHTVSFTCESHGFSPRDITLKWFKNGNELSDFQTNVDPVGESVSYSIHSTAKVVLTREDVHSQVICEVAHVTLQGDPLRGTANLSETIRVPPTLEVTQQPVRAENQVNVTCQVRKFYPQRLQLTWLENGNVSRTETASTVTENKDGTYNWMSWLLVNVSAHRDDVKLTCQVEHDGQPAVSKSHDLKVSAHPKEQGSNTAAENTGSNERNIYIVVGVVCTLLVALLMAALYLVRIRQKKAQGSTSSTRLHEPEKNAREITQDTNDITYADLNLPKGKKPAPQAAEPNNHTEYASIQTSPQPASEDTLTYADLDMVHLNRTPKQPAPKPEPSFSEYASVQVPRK

Experiment [6] concerns the target T1, human SIRPA_V1 protein. Kind of experiment: cell-based ELISA on 293α cells expressing FLAG-tagged SIRPA_V1; Abs 490 normalized to FLAG tag. On the procedure:
(§2) The 293α cells [described in Example 1)-6] were prepared in a 10% FBS-containing DMEM medium to 5×10⁵ cells/mL. pFLAG V5-DEST-SIRPA_V1, pFLAG V5-DEST-SIRPA_V2, or pFLAG V5-DEST was introduced into the cells using Lipofectamine LTX (Invitrogen), followed by addition of 100 μL per well to a 96-well plate (Corning Incorporated), and cells were cultured overnight in the 10% FBS-containing DMEM medium at 37° C. under a 5% CO₂ condition. The obtained introduced cells were used for cell-based ELISA in a state that they adhered to each other. After the culture supernatant was removed, 50 μL per well of the cD13 (IgG2 and IgG4pf), cF44 (IgG1, IgG2, IgG4p, and IgG4pf), and cF63 (IgG2 and IgG4pf) antibodies prepared in Examples 3 and 4 were added to each of pFLAG V5-DEST-SIRPA_V1, pFLAG V5-DEST-SIRPA_V2, or pFLAG V5-DEST-introduced cells at final concentrations of 0 to 10,000 ng/mL, and the mixture was allowed to stand at 4° C. for one hour. Further, 50 μL per well of anti-FLAG M2 antibody (SIGMA) diluted with 5% FBS-containing PBS to a final concentration of 10,000 ng/mL was added to a well for detecting expression of each SIRPA construct, and the mixture was allowed to stand at 4° C. for one hour. The cells in the well were washed once with 5% FBS-containing PBS, followed by addition of Peroxidase AffiniPure F(ab′)₂ Fragment Goat Anti-Human IgG, Fcγ Fragment Specific (Jackson ImmunoResearch) diluted 1000-fold with 5% FBS-containing PBS, and the mixture was allowed to stand at 4° C. for one hour. The cells in the well were washed five times with 5% FBS-containing PBS, followed by addition of 100 μL per well of an OPD coloration solution [o-phenylenediamine dihydrochloride (Wako Pure Chemical Industries, Ltd.) and H₂O₂ were dissolved in an OPD solution (0.05 M trisodium citrate, 0.1 M disodium hydrogen phosphate dodecahydrate, pH 4.5) at 0.4 mg/mL and 0.6% (v/v), respectively]. A coloration reaction was performed with stirring occasionally, 100 μL per well of 1 M HCl was added to terminate the coloration reaction, and then absorbance at 490 nm was measured with a plate reader ARVO (PerkinElmer Inc.). Binding of the human chimeric anti-human SIRPA antibodies to each construct was standardized by expression of the FLAG tag.
Target sequence in this assay (P78324 31-504 limits assumed): as the sequence (P78324 31-504 limits assumed) above

Experiment [7] has as its target T4, human SIRPA_V2 protein. Kind of experiment: blocking cell-based ELISA: peroxidase-labeled CD47-Fc (10,000 ng/mL) on 293α cells expressing SIRPA_V2; y axis = CD47-Fc signal in % of no antibody [ii]. The source holds these as a separate data set.
The target of experiment [8] is T4, human SIRPA_V2 protein. The experiment can be described thus: cell-based ELISA on 293α cells expressing FLAG-tagged SIRPA_V2; Abs 490 normalized to FLAG tag. On the procedure: as §2

Where two headings read alike, the source gives them in different places.

T2 sequence (P78324 other isoform, or with tags, fused parts or gaps limits assumed): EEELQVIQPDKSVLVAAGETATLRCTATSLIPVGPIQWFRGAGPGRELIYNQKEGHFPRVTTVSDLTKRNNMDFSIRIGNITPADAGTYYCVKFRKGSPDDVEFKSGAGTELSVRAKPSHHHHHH

B1: human chimeric anti-SIRPA antibody cF44 (antibody, human IgG4 S228P, kappa, F234A L235A, V domains shown)
VH: EVQLVESGGGLVQPGRSLKLSCAASGFTFSNYYMAWVRQAPTKGLEWVTYITTGGGSTYFRDSVKGRFTISRDNAESTLYLQMDSLRSEDTATYYCTAANYGGSYFDYWGQGVMVTVSS
VL: DVQMTQSPSNLAASPGESVSINCKASKSISKYLAWYQQKPGKANKLLIYSGSTLQSGTPSRFSGSGSGTDFTLTIRNLEPEDFGLYYCQQHNEYPPTFGAGTKLELKR
notes: Human IgG4proFALA heavy chain, human kappa light chain; also called cF44 (IgG4pf); human chimeric antibody F44
B1: the “IC50 (read off the curve)” value in experiment [1] is roughly 0.6 µg/mL; in experiment [4], roughly 0.6 µg/mL; in experiment [5], roughly 0.4 µg/mL; in experiment [7], roughly 0.4 µg/mL. This molecule also came in with a dissociation constant (Kd) in experiment [2] of 1.72 nM. Also, the “EC50 (read off the curve)” value in experiment [3] was roughly 0.08 µg/mL; in experiment [6] it was roughly 0.05 µg/mL; in experiment [8], roughly 0.05 µg/mL.

Usually Kd stands for the constant that tells how readily two partners part at equilibrium. In general, EC50 (read off the curve) refers to the concentration at which the effect is half-maximal.

Values taken from patent US20260098102A1 (NATIONAL UNIVERSITY CORPORATION KOBE UNIVERSITY, published 2026).
